Results: patent publication US20140155325A1 (Janssen / Centocor, published 2014)
Numbering of substitutions follows the chain as printed.

Legend:
[1] = molecular target: human EGFR (epidermal growth factor receptor) on cells (human) (UniProt P00533); experiment: cell-based or functional assay
[2] = molecular target: human EGFR (epidermal growth factor receptor) on cells (human) (UniProt P00533)
[3] = molecular target: human EGFR (epidermal growth factor receptor) on cells (human) (UniProt P00533); remark: listed apart in the source
[4] = molecular target: human EGFR (epidermal growth factor receptor) on cells (human) (UniProt P00533); remark: listed apart in the source
[5] = molecular target: T1, human EGFR (epidermal growth factor receptor) on cells (human, UniProt P00533 25-1210); experiment: cell-based or functional assay
[6] = molecular target: T1, human EGFR (epidermal growth factor …); experiment: cell-based or functional assay; remark: listed apart in the source
[7] = molecular target: T1, human EGFR (epidermal growth factor …); experiment: cell-based or functional assay; remark: listed apart in the source
[8] = molecular target: T1, human EGFR (epidermal growth factor …); experiment: cell-based or functional assay; remark: listed apart in the source
[9] = molecular target: T2, recombinant human extracellular domain of EGFR fused to an IgG1 Fc (human, UniProt P00533 25-645); experiment: SPR (ProteOn), EGFR-Fc captured by anti-human Fc
T2 construct: Bought from R&D Systems; captured on anti-human Fc IgG in the SPR assays; also called EGFR-Fc; recombinant EGFR extracellular domain; not shown: IgG1 Fc of the bought fusion protein (R&D Systems)
Description: Select EGFR-binding FN3 domains were screened to identify those with slow off-rates (koff) in binding to EGFR-Fc on a ProteOn XPR-36 instrument (Bio-Rad) to facilitate selection of high affinity binders. Goat anti-human Fc IgG (R&D systems), at a concentration of 5 μg/mL, was directly immobilized via amine coupling (at pH 5.0) on all 6 ligand channels in horizontal orientation on the chip with a flow rate of 30 μL/min in PBS containing 0.005% Tween-20. The immobilization densities averaged about 1500 Response Units (RU) with less than 5% variation among different channels. EGFR-Fc was captured on the anti-human Fc IgG surface to a density around 600 RU in vertical ligand orientation. All tested FN3 domains were normalized to a concentration of 1 μM and tested for their binding in horizontal orientation. All 6 analyte channels were used for the FN3 domains to maximize screening throughput. The dissociation phase was monitored for 10 minutes at a flow rate of 100 μL/min. The inter-spot binding signals were used as references to monitor non-specific binding between analytes and the immobilized IgG surface, and were subtracted from all binding responses. […]
Binding affinity of selected EGFR-binding FN3 domains to recombinant EGFR extracellular domain was further characterized by surface Plasmon resonance methods using a Proteon Instrument (BioRad). […]

[10] = molecular target: T1, human EGFR (epidermal growth factor …); experiment: A431 cell EGF competition (biotinylated EGF)
[11] = molecular target: T1, human EGFR (epidermal growth factor …); experiment: A431 cell binding, anti-His-Alexa488

B1: ECB5 (designed binder, not shown: small tags and cut ends)
chain: MLPAPKNLVVSEVTEDSARLSWADPHGFYDSFLIQYQESEKVGEAIVLTVPGSERSYDLTGLKPGTEYTVSIYGVHNVYKDTNMRGLPLSAIFTTGGGGSGGGGSGGGGSGGGGSMLPAPKNLVVSRVTEDSARLSWTAPDAAFDSFWIRYFEFLGSGEAIVLTVPGSERSYDLTGLKPGTEYVVNIMGVKGGKISPPLSAIFTT
Question: For B1, which fold decrease of the IC50 for inhibition of EGFR phosphorylation in NCI-H441 cells against monospecific P53A1R5-17v2 [1] is on record?
Answer: The fold decrease of the IC50 for inhibition of EGFR phosphorylation in NCI-H441 cells against monospecific P53A1R5-17v2 was 30 fold.

Question: What about the IC50, inhibition of EGF-stimulated EGFR phosphorylation (relative pEGFR, RCLU) in H441 cells, +10 ng/mL EGF [+10ng/mL EGF), IC50 table] [2] of the same binder?
Answer: The IC50, inhibition of EGF-stimulated EGFR phosphorylation (relative pEGFR, RCLU) in H441 cells, +10 ng/mL EGF [+10ng/mL EGF), IC50 table] was 2.3 nM.

Question: And the IC50, inhibition of EGF-stimulated EGFR phosphorylation (relative pEGFR, RCLU) in H596 cells, +2.5 ng/mL EGF [+2.5ng/mL EGF), IC50 table] [3]?
Answer: Its IC50, inhibition of EGF-stimulated EGFR phosphorylation (relative pEGFR, RCLU) in H596 cells, +2.5 ng/mL EGF [+2.5ng/mL EGF), IC50 table] is 83.2 nM.

Question: And the IC50, inhibition of EGF-stimulated EGFR phosphorylation (relative pEGFR, RCLU) in H292 cells, +50 ng/mL EGF [+50ng/mL EGF), IC50 table] [4]?
Answer: The IC50, inhibition of EGF-stimulated EGFR phosphorylation (relative pEGFR, RCLU) in H292 cells, +50 ng/mL EGF [+50ng/mL EGF), IC50 table] was 76.6 nM.

B2: P53A1R5-17 (designed binder, not shown: small tags and cut ends)
chain: LPAPKNLVVSEVTEDSLRLSWADPHGFYDSFLIQYQESEKVGEAINLTVPGSERSYDLTGLKPGTEYTVSIYGVHNVYKDTNMRGLPLSAEFTT
Question: What does the source list for B2?
Answer: IC50, inhibition of EGF-stimulated EGFR phosphorylation (relative pEGFR, RCLU) in H596 cells, +2.5 ng/mL EGF [+2.5ng/mL EGF), IC50 table] [5]: 35.4 nM; IC50, inhibition of EGF-stimulated EGFR phosphorylation (relative pEGFR, RCLU) in H292 cells, +50 ng/mL EGF [+50ng/mL EGF), IC50 table] [6]: 151 nM; IC50, inhibition of EGF-stimulated EGFR phosphorylation (relative pEGFR, RCLU) in H441 cells, +10 ng/mL EGF [+10ng/mL EGF), IC50 table] [7]: 70.2 nM

B3: P54AR4-47 (designed binder)
chain: B2 chain with A22W, H25F, G26S
Question: Which results are given for B3?
Answer: NCI-H292 Growth IC50 [8]: 44 nM; NCI-H322 Growth IC50 [8]: 39 nM; Phospho-EGFR IC50 (EGF-stimulated, A431 cells) [8]: 295 nM; Kd [9]: 2.51 nM; IC50 [10]: 7.1 nM; EC50 [11]: 8.6 nM
